# Experimental data published in patent US20200010507A1.
# Where no end group is shown, it is not given here. [ ]: non-standard residue; d: D form. NMeE = CN[C@@H](CCC(=O)O)C(=O)O
# Biological target: ex vivo seeds extracted from the hearts of eight ATTR patients
# Test: cell-based or functional assay
binder,measurement,value
RRRRHVAHPFV[NMeE]FTE [TabF2],peptide concentration giving full inhibition of amyloid seeding (tested as the cocktail TabFH2),360 µM
